One data set has as its target T1, BBRF2Δ (Epstein-Barr virus, UniProt P29882).
T1 construct: The cDNAs for full-length BBRF2 and BBRF2_17–278 were cloned into a modified pET28 vector (pSKB); made in house; host or cells: E. coli Rosetta (DE3)
The data set is described as follows: biochemical. Type of data set: binding, human herpesvirus 4 strain M81. The method, then:
(§1) The biolayer interferometry (BLI) assay was performed using an eight-channel OctetRED biolayer interferometry system (FortéBio).
(§2) All experiments were carried out at 25 °C. Each measurement involved an 120 s baseline (with reaction buffer), followed by a 180 s (with protein or peptide) association phase, and a 180 s dissociation phase (with reaction buffer). Raw data were processed using Octet Data Analysis software 11.0 provided by Fortebio to derive the dissociation constant (KD). The results were presented in a graph using Origin (version 2019, OriginLab).

A short description of data set [1]: SEC-RALS, oligomeric state in solution. Type of data set: physicochemical. The following applies: Superdex 75 or 200, 20 mM HEPES pH 7.0, 600 mM NaCl, 10% glycerol, 1 mM DTT. How it is done:
(§3) The entire experiment was performed in buffer C. The RALS data were analyzed by OMNISEC software.

Data set [2] can be described thus: Solubility of recombinant BSRF1 constructs. Type of data set: physicochemical. The following applies: recombinant protein.
For data set [3], the target named is T2, BBRF2Δ (BBRF2 17-278) (Epstein-Barr virus (human herpesvirus 4 …, UniProt P29882 17-278)).
T2 construct: source: E. coli Rosetta (DE3), purified (Ni-NTA, SEC)
T2 sequence: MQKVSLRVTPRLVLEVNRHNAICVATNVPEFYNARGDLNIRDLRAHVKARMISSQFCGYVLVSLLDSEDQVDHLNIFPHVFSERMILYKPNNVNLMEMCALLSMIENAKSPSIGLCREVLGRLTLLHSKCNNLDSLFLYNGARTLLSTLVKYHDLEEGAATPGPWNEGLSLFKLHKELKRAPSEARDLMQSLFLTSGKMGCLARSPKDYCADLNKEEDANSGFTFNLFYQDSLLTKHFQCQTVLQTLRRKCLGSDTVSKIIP
The data set is described as follows: SEC. As to conditions: both partners purified.

Another data set has as its target T3, His6-tagged BBRF2Δ (Epstein-Barr virus (human herpesvirus 4 …, UniProt P29882 17-278)).
T3 construct: also called His-tagged BBRF2Δ; source: E. coli Rosetta (DE3), purified; not shown: His6, N-terminal, kept
T3 sequence: T2 sequence
The data set is described as follows: BLI. The following applies: both partners purified.

Data set [4] deals with the molecule itself. In words: SEC-RALS; Superdex 75 or Superdex 200 Increase 10/300 GL; 25 μM of each purified protein mixed and incubated overnight at 4 °C; buffer C (20 mM HEPES pH 7.0, 600 mM NaCl, 10% glycerol, 1 mM DTT).
In data set [5] the target is T2, BBRF2Δ (BBRF2 17-278). Described as above. The following applies: both partners purified.
For data set [6] the following is noted: 6 μM protein, 3 mM liposomes (Golgi, ER, plasma membrane mixes), 60 min, room temperature; alone or complexed with full-length BBRF2.
Data set [7] concerns the target T4, His6-tagged BBRF2Δ (Epstein-Barr virus (human herpesvirus 4 strain M81)), P29882.
T4 chain: T2 sequence
In words: BLI. (Biolayer interferometry detects binding as a change in optical thickness at a sensor tip.)

For a further data set, the system named is BSRF1Δ. In words: SEC analysis, BBRF2Δ mutants with BSRF1Δ. The data set is classed as binding, human herpesvirus 4 strain M81. The following applies: Superdex 75, 25 μM each, overnight at 4 °C, buffer C pH 7.0. The method, then: as §3
On the technique in general: SEC sorts molecules by how far they enter the pores of the column.

The subject of the next data set is BBRF2Δ(F209K). In words: Biolayer interferometry (BLI) on BBRF2Δ(F209K). As to conditions: compared to wild-type, pH 7.0, 25 °C. The data set is classed as binding, human herpesvirus 4 strain M81. The method, then: as §1, §2

Where a chain is given by its changes, count along the chain named. Names and notes keep the numbering of the source. Where a SMILES comes first, the peptide text is derived from it.

The term Kd denotes the constant that tells how readily two partners part at equilibrium. The low end stands for a tighter complex, the high end for a looser complex. With `CC[C@H](C)[C@H](NC(=O)[C@H](CO)NC(=O)[C@H](CC(N)=O)NC(=O)[C@H](C)NC(=O)[C@H](CCC(N)=O)NC(=O)[C@@H](NC(=O)[C@H](C)NC(=O)[C@H](CC(C)C)NC(=O)[C@H](CC(C)C)NC(=O)[C@H](Cc1ccc(O)cc1)NC(=O)[C@@H](NC(=O)[C@H](CCC(N)=O)NC(=O)[C@H](CCCNC(=N)N)NC(=O)[C@H](CC(C)C)NC(=O)[C@H](CO)NC(=O)CNC(=O)[C@H](CCSC)NC(=O)[C@@H](NC(=O)[C@H](CCC(N)=O)NC(=O)[C@H](CCC(=O)O)NC(=O)[C@H](CC(N)=O)NC(=O)[C@H](CCCNC(=N)N)NC(=O)[C@H](CC(C)C)NC(=O)[C@H](CC(C)C)NC(=O)[C@H](CC(=O)O)NC(=O)CNC(=O)[C@@H](NC(=O)[C@H](CCC(N)=O)NC(=O)[C@@H](NC(=O)CNC(=O)[C@@H]1CCCN1C(=O)[C@@H]1CCCN1C(=O)[C@H](CC(C)C)NC(=O)CNC(=O)[C@H](CC(C)C)NC(=O)[C@@H](N)CC(=O)O)C(C)C)C(C)C)[C@@H](C)O)C(C)C)C(C)C)C(=O)N[C@H](C(=O)N[C@@H](CC(=O)O)C(=O)O)[C@@H](C)O` [P1] (H-DLGLPPGVQVGDLLRNEQTMGSLRQVYLLAVQANSITD-OH), the Kd at BBRF2Δ is 7.43 µM.

B1: BBRF2: EBV tegument protein, full-length (protein)
chain: MASGKHHQPGGTRSLTMQKVSLRVTPRLVLEVNRHNAICVATNVPEFYNARGDLNIRDLRAHVKARMISSQFCGYVLVSLLDSEDQVDHLNIFPHVFSERMILYKPNNVNLMEMCALLSMIENAKSPSIGLCREVLGRLTLLHSKCNNLDSLFLYNGARTLLSTLVKYHDLEEGAATPGPWNEGLSLFKLHKELKRAPSEARDLMQSLFLTSGKMGCLARSPKDYCADLNKEEDANSGFTFNLFYQDSLLTKHFQCQTVLQTLRRKCLGSDTVSKIIP
Regarding B1, the “oligomeric state in solution” value in data set [1] is reported as “monomer in solution”.

B2: BSRF1: Full-length BSRF1 (residues 1–218), EBV tegument protein (protein)
chain: MAFYLPDWSCCGLWLFGRPRNRYSQLPEEPETFECPDRWRAEIDLGLPPGVQVGDLLRNEQTMGSLRQVYLLAVQANSITDHLKRFDAVRVPESCRGVVEAQVAKLEAVRSVIWNTMISLAVSGIEMDENGLKALLDKQAGDSLALMEMEKVATALKMDETGAWAQEISAVVSSVTAPSASAPFINSAFEPEVPTPVLAPPPVVRQPEHSGPTELALT
modifications: left off: Flag, end not stated, kept
notes: Full-length BSRF1 (residues 1–218), EBV tegument protein
With B2, in data set [2], the solubility result is reported as “insoluble”.

B3: BSRF1Δ with Cys95 mutated to serine (domain or fragment)
chain: ECPDRWRAEIDLGLPPGVQVGDLLRNEQTMGSLRQVYLLAVQANSITDHLKRFDAVRVPESSRGVVEAQVAKLEAVRSVIWNTMISLAVSGIEMDENGLKALLDKQAGDSLALMEMEKVATALKMD
notes: also called BSRF1Δ(C95S); source: E. coli, purified
With B3, in the data set with BBRF2Δ (BBRF2 17-278) [3], the binding result is “binds”.

B4: BSRF1Δ(M63D) (domain or fragment)
chain: B3 chain with M30D, S62C
notes: source: E. coli, purified
Consider B4, for which the binding result in the data set with His6-tagged BBRF2Δ and with BBRF2Δ (BBRF2 17-278) [3] was “binds” throughout.

B5: BSRF1Δ(N59K) (domain or fragment)
chain: B3 chain with N26K, S62C
notes: source: E. coli, purified
Take B5: the binding result with His6-tagged BBRF2Δ and with BBRF2Δ (BBRF2 17-278) [3] was “binds” in each case.

B6: BSRF1_(20-218) (domain or fragment)
chain: RNRYSQLPEEPETFECPDRWRAEIDLGLPPGVQVGDLLRNEQTMGSLRQVYLLAVQANSITDHLKRFDAVRVPESCRGVVEAQVAKLEAVRSVIWNTMISLAVSGIEMDENGLKALLDKQAGDSLALMEMEKVATALKMDETGAWAQEISAVVSSVTAPSASAPFINSAFEPEVPTPVLAPPPVVRQPEHSGPTELALT
notes: also called near-full-length BSRF1; source: E. coli, purified (as the BBRF2 constructs, 300 mM NaCl, no glycerol)
Broadly, the stoichiometry N is a count of units in the complex or per binding partner. As to B6, the “stoichiometry N” value is 2 in data set [4] and 1 in the data set with BBRF2Δ (BBRF2 17-278) [5]. The “oligomeric state in solution” value in data set [1] was “dimerized in solution”. In addition, in data set [6], the membrane binding result is on record as “did not exhibit a strong tendency for membrane binding”.

B7: BSRF1-derived peptide 1 (peptide)
chain: DLGLPPGVQVGDLLRNEQTMGSLRQVYLLAVQANSITD
modifications: not checked
Take B7: the Kd in data set [7] came to 7.4 µM.

B8: BBRF2Δ: N-terminally truncated version with deletion of residues 1−16 (protein)
chain: T2 sequence
As to B8, the “oligomeric state in solution” value in [1] is “monomeric both in solution and in the asymmetric unit of the crystal”.

B9: BBRF2Δ(M205K): BBRF2Δ with Met205 mutated to lysine (protein)
chain: T2 sequence with M189K
As to B9, the “complex formation with BSRF1Δ” value with BSRF1Δ was “did not form a complex with BSRF1Δ”.

B10: BBRF2Δ(F209K): BBRF2Δ with Phe209 mutated to lysine (protein)
chain: T2 sequence with F193K
For the molecule B10, the “complex formation with BSRF1Δ” value in the data set with BSRF1Δ was “maintained the binding for BSRF1Δ”. For the same molecule, the “binding affinity of BBRF2Δ(F209K) with BSRF1Δ, in words” value in the data set with BBRF2Δ(F209K) is “moderately reduced binding affinity”.
